Residue numbers refer to the chain shown, from its start. In names and notes the source's numbering stands.
B1: variant CD80 IgV-Fc Q33L/E35D/M47V/L85Q (Fc fusion, not shown: a dimerising Fc or GST)
chain: VIHVTKEVKEVATLSCGHNVSVEELAQTRIYWLKDKKMVLTMMSGDVNIWPEYKNRTIFDITNNLSIVILALRPSDEGTYECVVQKYEKDAFKREHLAEVTLSVKAD
B2: variant CD80 IgV-Fc Q33L/E35D/T41S/M43I (Fc fusion, not shown: a dimerising Fc or GST)
chain: B1 chain with T41S, M43I, V47M, Q85L
B3: variant CD80 IgV-Fc H18L/V22A/E35D/M47L/N48T/L85Q (Fc fusion, not shown: a dimerising Fc or GST)
chain: B1 chain with H18L, V22A, L33Q, V47L, N48T
B4: variant CD80 IgV-Fc E7D/E35D/M47I/L97Q (Fc fusion, not shown: a dimerising Fc or GST)
chain: B1 chain with E7D, L33Q, V47I, Q85L, L97Q
B5: variant CD80 IgV-Fc A26E/E35D/M43T/M47L/L85Q/R94Q (Fc fusion, not shown: a dimerising Fc or GST)
chain: B1 chain with A26E, L33Q, M43T, V47L, R94Q
B6: variant CD80 IgV-Fc A26E/Q33R/E35D/M47L/L85Q/K86E (Fc fusion, not shown: a dimerising Fc or GST)
chain: B1 chain with A26E, L33R, V47L, K86E
notes: Fc fusions are described in general as dimers
B7: variant CD80 IgV-Fc H18Y/Q33L/E35D/M47I (Fc fusion, not shown: a dimerising Fc or GST)
chain: B1 chain with H18Y, V47I, Q85L
B8: variant CD80 IgV-Fc E35D/M47L/L85Q (Fc fusion, not shown: a dimerising Fc or GST)
chain: B1 chain with L33Q, V47L
B9: variant CD80 IgV-Fc A26E/Q33L/E35D/M47L (Fc fusion, not shown: a dimerising Fc or GST)
chain: B1 chain with A26E, V47L, Q85L
B10: variant CD80 IgV-Fc H18Y/A26E/Q33L/E35D/M47L/L85Q (Fc fusion, not shown: a dimerising Fc or GST)
chain: B1 chain with H18Y, A26E, V47L
B11: variant CD80 IgV-Fc H18Y/E35D/M47L (Fc fusion, not shown: a dimerising Fc or GST)
chain: B1 chain with H18Y, L33Q, V47L, Q85L
B12: variant CD80 IgV-Fc E35D/M47I/E77A/L85Q/R94W (Fc fusion, not shown: a dimerising Fc or GST)
chain: B1 chain with L33Q, V47I, E77A, R94W
B13: variant CD80 IgV-Fc A26E/Q33L/E35D/M47L/L85Q (Fc fusion, not shown: a dimerising Fc or GST)
chain: B1 chain with A26E, V47L
B14: variant CD80 IgV-Fc A26E/Q33R/E35D/M47L/L85Q (Fc fusion, not shown: a dimerising Fc or GST)
chain: B1 chain with A26E, L33R, V47L
B15: variant CD80 IgV-Fc (inert) A26P/E35D/M47I/V68M/A71G/D90G (Fc fusion)
chain: B1 chain with A26P, L33Q, V47I, V68M, A71G, Q85L, D90G
notes: not shown: inert human IgG1 Fc
B16: variant CD80 IgV-Fc (inert) H18F/A26P/E35D/M47I/V68M/A71G/D90G (Fc fusion)
chain: B1 chain with H18F, A26P, L33Q, V47I, V68M, A71G, Q85L, D90G
notes: as for B15
B17: CD80 E35D/M47V/N48K IgV-Fc (Fc fusion, not shown: small tags and cut ends; a dimerising Fc or GST)
chain: B1 chain with L33Q, N48K, Q85L
B18: CD80 E35D/M47V/N48K/V68M IgV-Fc (Fc fusion, not shown: small tags and cut ends; a dimerising Fc or GST)
chain: B1 chain with L33Q, N48K, V68M, Q85L
B19: CD80 N48K/V68M/K89N IgV-Fc (Fc fusion, not shown: small tags and cut ends; a dimerising Fc or GST)
chain: B1 chain with L33Q, D35E, V47M, N48K, V68M, Q85L, K89N
B20: CD80 E35D/M47V/V68M/K89N IgV-Fc (Fc fusion, not shown: small tags and cut ends; a dimerising Fc or GST)
chain: B1 chain with L33Q, V68M, Q85L, K89N
B21: CD80 V68M/K89N IgV-Fc (Fc fusion, not shown: small tags and cut ends; a dimerising Fc or GST)
chain: B1 chain with L33Q, D35E, V47M, V68M, Q85L, K89N
B22: CD80 E35D/V68M/K89N IgV-Fc (Fc fusion, not shown: small tags and cut ends; a dimerising Fc or GST)
chain: B1 chain with L33Q, V47M, V68M, Q85L, K89N
B23: variant CD80 IgV-Fc (inert) H18Y/A26P/E35D/M47V/V68M/A71G (Fc fusion)
chain: B1 chain with H18Y, A26P, L33Q, V68M, A71G, Q85L
notes: as for B15

Molecular target: T1, human CTLA4 (full-length, expressed on CHO cells) (human, UniProt P16410 36-223)
T1 construct: also called huCTLA4
Test: flow cytometry, CHO cells expressing huCTLA4, PE anti-human Fc

T1 sequence (P16410 36-223): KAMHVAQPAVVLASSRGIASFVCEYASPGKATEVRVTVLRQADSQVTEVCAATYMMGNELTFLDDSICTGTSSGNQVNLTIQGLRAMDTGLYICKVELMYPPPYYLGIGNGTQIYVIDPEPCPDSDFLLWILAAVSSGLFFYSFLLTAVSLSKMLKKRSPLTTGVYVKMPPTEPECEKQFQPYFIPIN

Binder	MFI at 33.3 nM [MFI]
B1	75400
B2	6390
B3	374000
B4	271000
B5	278000
B6	1280
B7	5540
B8	336000
B9	1320
B10	2090
B11	284000
B12	247000
B13	1170
B14	1280

Molecular target: T2, human CTLA-4 (human, UniProt P16410 36-223)
T2 construct: whole, on cells; CHO cells stably expressing huCTLA4; also called huCTLA4
Test: flow cytometry, CHO cells stably expressing huCTLA-4, 33.3 nM Fc fusion, PE anti-human Fc

T2 sequence (P16410 36-223): as above

Binder	MFI at 33.3 nM [MFI]
B15	19800
B16	23900

Molecular target: T3, CD28 (endogenously expressed on Jurkat/IL2 reporter cells) (human, UniProt P10747 19-220)
T3 construct: Endogenous CD28 of Jurkat cells; also called human CD28
Test: flow cytometry, Jurkat/IL2 reporter cells (endogenous CD28), PE anti-human Fc

Binder	MFI at 33.3 nM [MFI]
B1	268
B4	273
B5	260
B6	275
B7	295
B8	646
B9	271
B10	272
B11	5070
B12	272
B13	274
B14	264

Molecular target: T4, human PD-L1 expressed on CHO cells (human, UniProt Q9NZQ7 19-290)
T4 construct: whole, on cells; Target on CHO cells stably expressing PD-L1; also called huPD-L1
Test: flow cytometry, CHO cells stably expressing PD-L1, Fc fusion at 33.3 nM

T4 sequence (Q9NZQ7 19-290): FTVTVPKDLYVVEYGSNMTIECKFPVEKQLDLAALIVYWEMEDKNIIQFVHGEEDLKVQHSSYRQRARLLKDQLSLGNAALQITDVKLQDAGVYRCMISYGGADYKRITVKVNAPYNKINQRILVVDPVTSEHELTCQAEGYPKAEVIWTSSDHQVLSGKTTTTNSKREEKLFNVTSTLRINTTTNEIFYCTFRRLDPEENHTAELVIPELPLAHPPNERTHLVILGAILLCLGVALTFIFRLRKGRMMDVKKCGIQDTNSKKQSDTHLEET

Binder	MFI at 33.3 nM [MFI]
B17	4850
B18	23500
B19	11500
B20	21800
B21	538

Molecular target: T5, human CTLA4 expressed on CHO cells (human, UniProt P16410 36-223)
T5 construct: whole, on cells; Target on CHO cells stably expressing CTLA4; also called huCTLA4
Test: flow cytometry, CHO cells stably expressing CTLA4, Fc fusion at 33.3 nM

T5 sequence (P16410 36-223): as the sequence (P16410 36-223) above

Binder	MFI at 33.3 nM [MFI]
B17	47400
B18	32900
B19	19100
B20	29500
B22	24800
B21	2330

Molecular target: T6, human PD-L1 (full-length, expressed on CHO cells) (human, UniProt Q9NZQ7 19-290)
T6 construct: also called huPD-L1; CD274
Test: flow cytometry, CHO cells expressing huPD-L1, PE anti-human Fc

T6 sequence (Q9NZQ7 19-290): as the sequence (Q9NZQ7 19-290) above

Binder	MFI at 33.3 nM [MFI]
B1	47400
B2	44900
B3	98100
B4	14600
B5	68100
B6	76000
B7	47800
B8	33200
B9	60900
B10	76600
B11	44200
B12	64500
B13	62700
B14	81500

Molecular target: T1, human CTLA4 (full-length, expressed on …)
Test: flow cytometry MFI at 33.3 nM relative to WT CD80 ECD-Fc (R&D), CHO/huCTLA4 cells

Binder	Fold change to WT CD80 [fold]
B1	0.42
B2	0.04
B3	2.09
B4	1.52
B5	1.56
B6	0.01
B7	0.03
B8	1.88
B9	0.01
B10	0.01
B11	1.59
B12	1.38
B13	0.01
B14	0.01

Molecular target: T7, human CD28 (human, UniProt P10747 19-220)
T7 construct: whole, on cells; Jurkat/IL2 reporter cells, which endogenously express CD28
Test: flow cytometry, Jurkat/IL2 reporter cells (endogenous CD28), 33.3 nM Fc fusion, PE anti-human Fc

Binder	MFI at 33.3 nM [MFI]
B15	8190
B23	6910
B16	4800

Molecular target: T6, human PD-L1 (full-length, expressed on …)
Test: flow cytometry, MFI on CHO/huPD-L1 cells over MFI on Jurkat (CD28) cells, 33.3 nM

Binder	Ratio of PDL1:CD28 [ratio]
B1	177
B2	104
B3	226
B4	54
B5	262
B6	276
B7	162
B8	51
B9	225
B10	282
B11	9
B12	238
B13	229
B14	309

Molecular target: T3, CD28 (endogenously expressed on …)
Test: flow cytometry MFI at 33.3 nM relative to WT CD80 ECD-Fc (R&D), Jurkat cells

Binder	Fold change to WT [fold]
B1	0.04
B4	0.04
B5	0.03
B6	0.04
B7	0.04
B8	0.08
B9	0.04
B10	0.04
B11	0.66
B12	0.04
B13	0.04
B14	0.03

Molecular target: T8, human PD-L1 (human, UniProt Q9NZQ7 19-290)
T8 construct: whole, on cells; CHO cells stably expressing huPD-L1; also called huPD-L1
Test: flow cytometry, CHO cells stably expressing huPD-L1, 33.3 nM Fc fusion, PE anti-human Fc

T8 sequence (Q9NZQ7 19-290): as above

Binder	MFI at 33.3 nM [MFI]
B23	51500
B16	32300

Molecular target: T6, human PD-L1 (full-length, expressed on …)
Test: flow cytometry MFI at 33.3 nM relative to WT CD80 ECD-Fc (R&D), CHO/huPD-L1 cells

Binder	Fold change to WT [fold]
B1	5.97
B2	5.66
B3	12.3
B4	1.84
B5	8.57
B6	9.56
B7	6.02
B8	4.18
B9	7.67
B10	9.64
B11	5.56
B12	8.12
B13	7.89
B14	10.3

Source: patent US20210130436A1 (published 2021)
